# B1: RADX-N (RADX 43-560, C-terminal truncation construct) (domain or fragment, human, UniProt Q6NSI4 43-560, looked up)
# chain: RSWIQKVLEQIMDSPRQCVTPSEVVPVTVLAVQRYLLEDEPRDTVPKPPLYCYDVTISDGVYQEKCYLDPSLNSLVYQNILKVGIQMRISRVSCLYNEKRIGQGILCIDNVHCGETSDSISLETPFRNRAHQEKPERPLRGGKSHYLALWNNEDPYGDIWLTDKQPEEHNFSDTKIISLSHLEMTWTNRRNFPALLVRILHKSKLRYYGKPDKKMIEPYQTFLEVADSSGTVSVIMWNALCPEWYKSLRVGLVLLLQDYSVKKSYPFRIQPVPVDPQIKLISTMEICLNLRDPPTNIIIIPEKQVKPEWRLPKLNHRFTTRSELDDMPENCICDVIGLLVFVGRVQRSKKKENREDFWSYRWIHIADGTSEQPFIVELFSTSQPEIFENIYPMAYFVCTQLKVVRNDNQVPKLLYLTTTNESGVFITGHRGQPYTYDAKVKNFIQWIRTKSDSGEQKNMVIGGYYPYPPVPETFSKYSSSIKVESLLTAISEVRKEIEDLQYREQKRIAIQGIITAIK
# Target: the molecule itself
# Test: mass photometry
protein,measurement,value
B1,stoichiometry N,2
